Among the data in patent publication US20220133889A1 (published 2022) are Kd values, retold here.

The target in assay [1] is TIM-3 (assay antigen; species and construct not stated) (UniProt Q8TDQ0 22-202). Nature of the assay: SPR (BIAcore). (SPR reads the build-up and loss of mass on a sensor chip optically.)
Assay [2] addresses T1, cynomolgus TIM-3 expressed on transfected cells (cynomolgus, UniProt A0A2K5U3G7 22-294).
T1 chain: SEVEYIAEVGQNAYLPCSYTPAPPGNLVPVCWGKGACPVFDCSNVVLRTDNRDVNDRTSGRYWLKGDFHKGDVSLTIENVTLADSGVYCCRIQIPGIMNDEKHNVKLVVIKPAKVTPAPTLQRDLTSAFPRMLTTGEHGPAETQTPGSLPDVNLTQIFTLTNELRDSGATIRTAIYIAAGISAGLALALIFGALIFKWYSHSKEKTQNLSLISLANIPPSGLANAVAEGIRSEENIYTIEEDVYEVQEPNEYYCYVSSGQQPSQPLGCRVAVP
The experiment in a line: cell binding (FACS); cyno TIM-3 cells.

The target of assay [3] is human TIM-3 expressed on cells (UniProt Q8TDQ0 22-301). The experiment in a line: cell binding (FACS); TIM-3-transfected 300.19 cells.

What is called Kd is the equilibrium constant for the complex coming apart. A high value points to weaker binding.

B1: ABTIM3 (antibody, V domains shown)
VH: QVQLQQPGAELVKPGASVKMSCKASGYTFTSYNMHWIKQTPGQGLEWIGDIYPGNGDTSYNQKFKGKATLTADKSSSTVYMQLSSLTSEDSAVYYCARVGGAFPMDYWGQGTSVTVSS
VL: DIVLTQSPASLAVSLGQRATISCRASESVEYYGTSLMQWYQQKPGQPPKLLIYAASNVESGVPARFSGSGSGTDFSLNIHPVEEDDIAIYFCQQSRKDPSTFGGGTKLEIK
Regarding B1, the Kd in assay [1] stood at 0.042 nM; in assay [2] it was 0.68 nM; in assay [3] it was 0.16 nM.
